Measurements: patent publication US20250276076A1, “ANTI-ALPP/ALPPL2 ANTIBODIES AND ANTIBODY-DRUG CONJUGATES” (SEAGEN INC., priority 2021, published 2025)

Test system: ALPP/ALPPL2-expressing HEK293 cells
Test: Flow cytometry and saturation binding of mouse antibodies
Parameters: species or system human
Settings: flow cytometry
Protocol: Cynomolgus ALPP, human ALPP, ALPPL2, ALPI and ALPL-expressing HEK293 cells were used to evaluate specificity and binding affinity. Briefly, one hundred thousand target-expressing HEK293 cells were transferred to 96-well plates. Cells were pelleted by centrifugation and resuspended in 100 μL of PBS+2% w/v BSA. After blocking, cells were resuspended in PBS+2% w/v BSA with unlabeled monoclonal anti-ALPP/ALPPL2 antibodies ranging in concentration from 8 pM to 666 nM and incubated on ice for 30 minutes. Cells were washed twice in PBS and resuspended in R-PE labeled secondary goat anti-human or anti-mouse antibodies (Jackson Immunoresearch, West Grove, PA) for 30 minutes on ice. Specificity of monoclonal antibodies for human and cynomolgus ALPP and ALPPL2, but not other members of this alkaline phosphatase family was confirmed by flow cytometry. Fluorescence was analyzed using an Attune NxT flow cytometer, and the percent of saturated fluorescent signal was used to determine percent bound and to subsequently calculate apparent KD.

B1: 12F3: murine anti-ALPP/ALPPL2 monoclonal antibody selected for humanization (antibody, V domains shown)
VH: EVKLVESGGGLVQPGGSLSLSCAASGFTFTDYYMSWVRQPPGKALEWLALIRNKATGYTTEYSASVKGRFTISRDNSQSILYLQMNALRAEDSATYYCARASFYYDGKVLAYWGQGTLVTVSA
VL: DTQMTQSPSSLSASLGGKVTITCKASQDINKYIAWYQYKTGKGPRLLIHYTSTLQPGIPSRFSGSGSGRDYSFSISNLEPEDIATYYCLQYDNLYTFGGGTKLEIK
saturation levels for ALPP: higher saturation levels for ALPP than SG84-1F7
